Laboratory results from the DeepSol protein solubility set.

assay: soluble on expression in E. coli; label from the status in PepcDB or PDB records

| Sequence | soluble on expression in E. coli |
| --- | --- |
| GLIIGPEEDYDPGYFNNESDIIFQDLEKLKSHPAYLVVFLRYILSQADPGPLLFYLCSEVYQQTNPKDSRSLGKDIWNIFLEKNAPLRVKIPEMLQAEIDLRLRNNEDPRNVLCEAQEAVMLEIQEQINDYRSKRTLGLGSLYGENDLLGLDGDPLRERQMAEKQLAALGDILSKYEEDRSAPMDFAVNTFMSHAGIRLRESR | soluble |
| MTRLSSGAKLNHPESSVCSPVYSWSTCIRKTSPVLFSSTIFALRRMTAPSAPCAQAPQLTRRWAKIVVENRTGSHFKIQVLHEYTGEQTNDSGYIDFKPDDRITVFEKIYYNTGFFTTGVDNWKVHGTKLIQVETEGTIARNIFGKFFVDGLPYSTGHGAFAKWKKHTLRADDDGQETVIKVFQTEVQFISPSGRSVTTFNTLGENILPFSQNPQKQ | not soluble |
| MENVTESKELERLKRIDRMKTEFIANISHELRTPLTAIKAYAETIYNSLGELDLSTLKEFLEVIIDQSNHLENLLNELLDFSRLERKSLQINREKVDLCDLVESAVNAIKEFASSHNVNVLFESNVPCPVEAYIDPTRIRQVLLNLLNNGVKYSKKDAPDKYVKVILDEKDGGVLIIVEDNGIGIPDHAKDRIFEQFYRVDSSLTYEVPGTGLGLAITKEIVELHGGRIWVESEVGKGSRFFVWIPKDRAGEDNRQDN | soluble |
| MNFENLLIELGTEELPPKALRKLAESFLANFTEELTKADLAFKSAVWYAAPRRLALNITELAIAQADKIVEKRGPAVSSAFDAGGKPTKAAEGWARGNGITVDQAERLVTDKGEWLVYNAKVEGVETKSLVAAMAQRALDKLPIPKPMRWGSSKTQFIRPVHTATMLLGSELIEGELLGIKSARNIRGHRFMGTGFELDHADNYLTLLKEKGKVIADYESRKALIKADAEKAAAKIGGTADIEDALLEEVTSLVEWPVVLTASFEEKFLSVPSEALVYTMKGDQKYFPVFDDAGKLLPNFIFVANIESKDPAQIISGNEKVVRPRLADAEFFFNTDKKHTLESRLPSLETVLFQQQLGTLKDKVTRISALAAFIAEQTGANAVDAARAGLLSKTDLMTNMVMEFTDTQGTMGMHYARLDGETEAVALAMEEQYKPKFSGDTVPTAAVSCAVALADKLDTLVGIFGIGQAPKGAADPFALRRAAIGVLRIIVENKLPLDLVTLIAKAQELHGANLSNANASEEVLEFLMARFRAWYQDKGINVDVILAVLARRPTR | not soluble |
| MSLSQNSESGNYRKYTSRNPLMGIVVSGFMKDLSETIAPLEEVGSIIDIGCGEGFIINCLNRKDITGVDVSKKALNIAKQKNPGCNFCTGSIYDLSFKKSSFDLVIATEVLEHLENPERALREIKRISKKYCIFSVPNEPYFRTMNFLRGKNLTRLGNDIEHLQNWSTKEFVKLVGRHFNVVEVKRPFPWTMVLCEKEGHHHHHH | not soluble |
| MKRNGETKRRRNVAEEAEQGEDPAMWENLDRNFRQVQSVLDRNRSLIQQVNDNHQSRMADNMSKNVALIQELNGNISKVVNMYSDLNTSFSSGFHGGKNGHDGGGAAGTRA | soluble |
| MAHHHHHHMDAAWEAHIRLDPATDAAMRSNSGSRANSGGAGTPPVTLAPPEHPFNVMSFNTASAGCSIAHCGFLRGREEDFLREVVQRLQPSSSPSAARHLLYVITSANDVYVVDVKTEVVFLHWAGGASTSGCSSSSSEASASPLGAQFIVTQAETYGALMYLTVARRSSVKTATEQAASRGCHLFSGGGGPERNVYQRCNDPAVYVLHLGCTKPLAASTTKAFIAGGGAYVIQAVSKDKPHPTSKHSRSNAASATASAGALSIRAPSVGASAATAAERIGSAGVCRRRRRWGGDPEEGAADLLRCQRTPRPQPVIDAQFVPSAAVLVPCHGAGHSSSSCKWICRNVQILLVTPTRQQLLCTAGRRRNGRREQRGPL | not soluble |
| MGSDKIHHHHHHYQPEKHAVVKSDRGDGRLLSTYAIVHEMLKDTHPQYAYRSGMSAQEFTQWQDGVRAAMVEIMKFPEIKRQPSPVCVKTEKKEGYILEKWEFYPFPKSVSTFLVLKPEHLKGAVPGVLCIPGSGRTKEGLVGEPGICDKLTEDYNNPKVSMALNMVKEGYVAVAVDNAAAGEASDLECYDKGWNYDYDVVSRFLLELGWSWLGYTSYLDMQVLNWMKAQSYIRKDRIVISGFSLGTEPMMVLGVLDKDIYAFVYNDFLCQTQERAVVMTKPDKENRRPFPNSIRHLIPGYWRYFNFPDVVASLAPRPIIFTEGGLDRDFRLVQSAYAASGKPENAEFHHYPKFADKAVRKDVEHLDEGLDSKTYFEAVNVDPPSHYFKNELVIPWLRKVLK | not soluble |
| MSLRTPYEEVRDFFHFVDNYVAEIDLLAEELAQELEIEGGETYGILAAHLRSLYGIHITRTEAAGGLIRHFDPAGKTLALSSYMAAPTRCFQLALQIAQLHAGATVDRVLAGAGFRNAEAAEICRIGLHNYFAAALILPYGQFHRAAQELRHDLELLAVRFGASLEQVAHRLSTLQRPGMKGVPIFFAKIDRAGNITKRHSATRLQFARFGAACPLWNIHQAFESSDRIVRQLAETPDGVRYLSIATQIEKAGAGFNTERPRYAIALGCEISHAQNFVYADTLDLGNAASFKPIGISCRVCERVDCVQRAVPPLKRKLHFDHLSRGALPYQIAEGHHHHHH | soluble |
| MSFFHASQRDALNQSLAEVQGQINVSFQFFPPRTSEMEQTLWNSIDRLSSLKPKFVSVTYGANSGERDRTHSIIKGIKDRTGLEAAPHLTCIDATPDELRTIARDYWNNGIRHIVALRGDLPPGSGKPEMYASDLVTLLKEVADFDISVAAYPEVHPEAKSAQADLLNLKRKVDAGANRAITQFFFDVESYLRFRDRCVSAGIDVEIIPGILPVSNFKQAKKFADMTNVRIPAWMAQMFDGLDDDAETRKLVGANIAMDMVKILSREGVKDFHFYTLNRAEMSYAICHTLGVRPGLLEHHHHHH | soluble |
| MGSDKIHHHHHHMTTFYSLKVARVEPETRDAVTITFAIPQALQAEYCFRPGQHLTLKARLGGEELRRCYSICRSRTPGEISVAVKAIDGGRFSRYAQQDIQQGMELEVMVPQGHFGYQPQAERQGEYLAIAAGSGITPMMAIISATLATEPQSRFTLIYGNRSSHSMMFRQALADLKDRYPQRLQVIHLFSQESMDSDLLQGRIDGDKLRQLADHLLDFSRFDEAFICGPAAMMDEAEATLRELGVAEKSIHLERFNTPGGNVKRVAGVQAEGRTVTIRQDGRDRLIALSAEDDSILDAALRQGADLPFACKGGVCATCKCKVLRGEVAMAANYSLEADELAAGYVLSCQSLPTSGDVVVDFDARGMA | not soluble |
| MAGCSMMKVDRTFPDLKEIPVDLATRFRQMIEWLEIANSECRLTPYKKISHIYQIFHSQGVLECLFRRGEDDISFMIEASVYLLDHPLDGSRSSSPTICDFAGVLPTIFVTFRNKRLGTMVSGASVEFMEFAHHIQEHIHRTSFPEIRTAEIHKISLIDVRFGNMDRNAKNIIVKVEDNIPHFVPIDHEMCFINTGQNYNLCKPYWLSLEDSSIYEA | soluble |
| MGSSHHHHHHSSGLVPRGSHMQIHTLTIRHGRSDPETVRSLLGQDQVLVVDYDAIHHHVINTAEYTYLSHMFDIIVLNLSGKLNDIIDTIMAGAAMVVIDPSVQEKRLREFFDITENIAMPYRGDGHSEAFSQLGGQYFVTDREIGYPFKLAYSTTDISGDRYIRVLDFPQDISDMIFERA | soluble |
| MPGLEKTRIVDPILTNVAIGYKNAEYVGESLFPVVPVDKEQGKIPKWGAEAFRIYNTRRQIRSKTNRIEMDATTVPYSLEEEALEAPIDDRELEEAAEVLKLEMSRTKMLTDNIRLKMEKDQADVAQNVANYSPGHVEALSGTDKFSDPASKPIDVIGDARATVRSKIGIYPNVLLMGASVYEVLKNHSAIIDKIKYSQKGIATPTCSQKSST | not soluble |
| MIKFYQYKNCTTCKKAAKFLDEYGVSYEPIDIVQHTPTINEFKTIIANTGVEINKLFNTHGAKYRELDLKNKLQTLSDDEKLELLSSDGMLVKRPLAVMGDKITLGFKEDQYKETWLA | not soluble |
| MVENVKIIRKKIKNMYLVVNPDCSVVVKAPVHVSDEYINSFIKKKESWIKKHLENFESLNSKSVAKKYIDGELFKYLGNEYILKVYPSKKEYLEISDNFFNLYVLETNDFEKKKKIIEKFYRKRAEIELFEIFKSNYKVVTEKMPDFSVRKMKKRWGSCSFHKNKIILNERLIEKSKDCIEYVVFHELAHLRYPNHSKDFYNYLTELMPEWKVKKLKLNERHLEHHHHHH | soluble |
| MGSDKIHHHHHHMDFELDDGWDVYPIYGNTNKAFMGKKNHQRLFLKRNASPFLAALSMEEITPRLIWTKRISSGDTLTAQEWLNGQTLTKQQMRLPEVAHLLARVHNSELLHRMLRKVGGQSVRPQDFIQQYLQDLPDDLRHHPLMARVLDELRGTAPTLPATDYRVCHGDLNHKNWLLSDRQQLYLVDWDSARFADPASDISMLLCEYVPLSDWQQWLSEYGETMTTALRTRVVWYAKINLLLNIKDNYYRNQYHQMNHEIIFLEELSQYEV | not soluble |
| MGSDKIHHHHHHMVRLAVVGLGKMGLSHYAMINAHPDVKVEAVCDSTGYVLDVLNKYTGVRTYTDFDVMLRDIELDAVIIATPSRSHGQMVEVALNENLHVFCEKPFCLDITEGERLARIAAERGLVNQVGYHNRFVGAFQEVKRLLDAGAIGAVTHVLAEAYGPVVLKPKGSTWRTQRTEGGGCLYDYAAHPINLVNWYLGAPQSVGGSVLNKIFSKDTEDEVFSTLYYEEGKSVQISVNWSDESYRKMTTKVTIWGTQGRIYADRQECQVYIRDGVNIPAGYQRGWNVRYTTDLTEAVWFYLRGEEYSAQLDYFVRCIEEKEGGGNINSFEEAVITDRVMSMMVADAEKRPPVTSGIAPRQAPGKKFGLLFGGRKAVS | not soluble |
| RSTMKYIRTLSAEIGILEGGNLDYRITVTGSDEMAVLAKGLDSMRESIRDKISQEAELIRLNQSMITGLSHDLRTPLTALLIYTEILKNEIDADRKQMQKWVLKIDEKAHQIKDMADCILNYSLLKKAAGPTALRQEPFRSVFYDSLSELCVCLEQKGFEVRPSLAWEDREICADSKYITRILDNICSNIIKYASCGDPIRIESFYQTDGCGLVFENKKSANQTQAESTGIGVRNIREMMEEMGGCCEAEETSEDYRIRLTFACSPAV | not soluble |
| MGSDKIHHHHHHLRIFGKEGCRMEMQRVIELDMPVNFRDLGGYQGLDGRQVKWRKIYRSAALNEMSARDRVKLANLRITVDCDLRSSREQRSYPDLLWPGVRFVNIGLYAEGDRFNQAHPFLRLFHHLPEFDDYLPKIYQQVLLNEHSEEGIKRVFEELLKLPEDQALVYHCAAGKDRTGIISILILMALGVDDKTIAEDYLLTDELYDFSIEKQHPTNEKLSQVIAKMNVTRGEGTAVKGITETIRQGWGSFDKFFTRKLGFKQADLEKFREMYLEEEEED | not soluble |
| SNHFGNHCTNTSGVVCHNNYNCTIDNSIHYADTRGVVSHHRENITGHHGLVFPAATMNGYGPATSFPDMRENGHLMVNQNRPVTLRPSMSQQQPQPQPLSDEYNKVETGTAEQVYVPSRD | soluble |
| KGLDKWGIYVPESAAQSVKDAVFEAGAGAIGDYSQCSFEWQGTGQFLPHHNAQPVVGHPGQLERTEELRVEFVAPARLRTTLIDAIRAAHPYEEPAFDVVSMQSTQDLETAEGLGRVGTLPEPMRFGDFVQQVADALPETSWGIRAAGDPEQMVHTVAVSSGSGDSFLDAVAALGVDVYVTSDLRHHPADESRRAQGPLLIDTAHWASEFPWTYQVQELLAQEFAQLDVEVATLRTDPWNISAHPQLR | not soluble |
| MGSSHHHHHHSSGLVPRGSHELGGRVSGSLAWRVARGETGLERKEILFIPSENEKISKQFHLRYDIVRDRYIRVSDNNTNISGWENGVWKMESIFRKVEKDWNMVYLARKEGSSFAYISWKFECGSAGLKVDTVSIRTSSQSFESGSVRWKLRSETAQVNLLGDKNLRSYNDFSGATEVTLEAELSRGDGDVAWQHTQLFRQSLNDSGENGLEIIITFNDL | soluble |
